The values below come from article PMC10159178 (PLOS ONE, 2023).

For the test, the target named is wild-type SARS-CoV-2 RBD-His protein (SARS-CoV-2, wild-type, UniProt P0DTC2). The test can be described thus: SPR. To be noted: both partners purified.

B1: 1D1 human monoclonal antibody against the RBD of SARS-CoV-2 (antibody, V domains shown)
VH: EVLLVESGGGLIQPGGSLRLSCAASGFTVSSNYMIWVRQAPGKGLEWVSLIYSGGSTFYADSVKGRFIISRDSSKNTLYLQMNSLRAEDTAVYYCAREPYGDKAWGQGTLVTVSS
VL: DIQMTQSPSSLSASVGDRVTITCQASQDINKYLNWYQQKPGKAPKPLISDTSNLQPGVPSRFSGSGAGTDFTLTISSLQPEDIATYYCQQYDNLPITFGQGTRLEIK
On to B1, for which the affinity, expressed as Kd, was 0.242 nM; the koff was 0.00015 s⁻¹; the kon stood at 620000 M⁻¹ s⁻¹.

B2: 3D2 human monoclonal antibody against the RBD of SARS-CoV-2 (antibody, V domains shown)
VH: EVQLVQSGAEVKKPGDSLKISCKGSGYSFANYWIGWVRQKPGKGLEWMGIIYPGDSDTRYSPSSLGQVSISVDKSISTAYLQWSSLKASDTAMYYCARHPIHGYGSGSLYNPDYWGQGTLVTVSS
VL: QSVLTQPPSVSAAPGQKVTISCSGSNSNIGINYVSWYQQLPETAPKLLIYENNQRPSGIPDRFSGSKSGTSATLGITGLQTGDEADYYCGTWDTSLGAYVFGTGTKVTVL
notes: also called 3D2 mAb
With B2, the Kd was 0.789 nM, the koff was 0.000268 s⁻¹, the kon turned out to be 339000 M⁻¹ s⁻¹ and the t1/2 worked out at 43.1 min.

The term Kd denotes the concentration at which binding is half-saturated. Lower therefore signals a tighter complex. For orientation: koff means a measure of how fast the partners let go of each other. A high value points to fast dissociation. In general, kon refers to the second-order rate constant of association.
